Experimental data: patent publication CN110156895A (SHANGHAI JIABEI BIOMEDICAL TECH CO LTD, dated 2019)

What was measured:
[1] = biological target: T1, 人PD-L1胞外区-6His (human, UniProt Q9NZQ7 19-238); assay: AlphaLISA competition: antibody titrated against binding of His-tagged PD-L1 to biotinylated PD-1
T1 construct: also called PD-L1-6His; 人PD-L1胞外结构区-6His蛋白

[2] = biological target: T1, 人PD-L1胞外区-6His; assay: SPR (Biacore), multi-cycle kinetics; antibody captured on Protein A chip, PD-L1 as analyte from 40 nM in 2-fold dilutions, 6 concentrations

T1 sequence (Q9NZQ7 other isoform, or with tags, fused parts or gaps): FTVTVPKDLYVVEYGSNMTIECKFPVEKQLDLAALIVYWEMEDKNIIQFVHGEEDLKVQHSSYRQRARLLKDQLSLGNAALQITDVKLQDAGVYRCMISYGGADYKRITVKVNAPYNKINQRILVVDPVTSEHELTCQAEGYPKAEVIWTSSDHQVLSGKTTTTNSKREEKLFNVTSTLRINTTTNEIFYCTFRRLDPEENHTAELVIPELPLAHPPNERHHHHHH

IC50 [1]: 0.0372 mg/L
Kd [2]: 7.1 nM
B1: 抗PD-L1全人源单克隆抗体 (antibody, V domains shown)
VH: QVQLVQSGGELKRPGSSVKVSCKASGGTFSSYAISWVRQAPGQGLEWMGRIIPIFGTANYAQKFQGRVTITADESTSTAYMELSSLRSEDTAVYYCASSSYRHFAFDIWGQGTTVTVSS
VL: QSALTQPASVSGSPGQSITISCTGTSSDVGSYNLVSWYQQHPGKAPKLMIYEVTKRPSGVSNRFSGSKSGNTASLTISGLQAEDEADYYCSSYAGSNNLVFGGGTKVTVL
notes: also called 抗PD-L1抗体; 抗PD-L1全长抗体
